The record followed here is publication PMC12489474, “New structural insights into the control of the retinoic acid receptors RAR/RXR by DNA, ligands, and transcriptional coregulators” (Nucleic Acids Research, 2025).

The labels stand for the following.
T1: HsRXRAΔAB (retinoid X receptor alpha without the A/B domain) (human (printed as HsRXRAΔAB; the same …, UniProt P19793 126-462)
T1 construct: A/B domain removed; In the rows of this molecule it stood as a subunit of the RAR/RXR heterodimer; Vector pET28b; also called RXRα; MmRXRAΔAB; source: E. coli BL21 (DE3), purified (HisTrap HP, thrombin cleavage, SEC Superdex 75); not shown: His6, N-terminal, cleaved
T1 sequence (looked up): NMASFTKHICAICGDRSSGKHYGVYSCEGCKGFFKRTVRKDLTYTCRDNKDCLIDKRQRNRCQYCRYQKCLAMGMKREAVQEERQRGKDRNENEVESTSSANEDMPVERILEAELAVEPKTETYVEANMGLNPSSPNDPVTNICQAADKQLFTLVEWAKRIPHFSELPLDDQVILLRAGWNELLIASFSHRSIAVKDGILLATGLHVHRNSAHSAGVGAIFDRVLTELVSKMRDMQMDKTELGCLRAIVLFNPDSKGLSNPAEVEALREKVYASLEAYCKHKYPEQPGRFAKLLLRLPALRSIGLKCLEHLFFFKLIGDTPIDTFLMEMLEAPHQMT

B1: RAR/RXR heterodimer (RARAΔABF with RXRAΔAB) (complex)
chain 1: PRIYKPCFVCQDKSSGYHYGVSACEGCKGFFRRSIQKNMVYTCHRDKNCIINKVTRNRCQYCRLQKCFDVGMSKESVRNDRNKKKKEAPKPECSESYTLTPEVGELIEKVRKAHQETFPALCQLGKYTTNNSSEQRVSLDIDLWDKFSELSTKCIIKTVEFAKQLPGFTTLTIADQITLLKAACLDILILRICTRYTPEQDTMTFSDGLTLNRTQMHNAGFGPLTDLVFAFANQLLPLEMDDAETGLLSAICLICGDRQDLEQPDKVDMLQEPLLEALKVYVRKRRPSRPHMFPKMLMKITDLRSISAKGAERVITLKMEIPGSMPPLIQEMLENSEGLD
chain 2: T1 sequence (looked up)
notes: retinoic acid receptor alpha, residues 82-421 of Uniprot entry P11416; as the chain of m1; as the chain of m2; 1:1 heterodimer by SEC-MALS; this is told in the format of each assay; also called RR–DR0; source: E. coli BL21 (DE3); RAR and RXR purified separately, mixed (2-fold excess of RAR), heterodimer purified by SEC (Superdex 200); not shown: His6, N-terminal, cleaved
B2: MmRARAΔABF (retinoic acid receptor alpha without the A/B and F domains) (domain or fragment, UniProt P11416 82-421, looked up)
chain: B1 chain 1
notes: retinoic acid receptor alpha, residues 82-421 of Uniprot entry P11416 (DBD, hinge and LBD; A/B and F domains removed); In the rows of this molecule it stood as a subunit of the RAR/RXR heterodimer; Vector pET15b; also called RARα; NR1B1; source: E. coli BL21 (DE3), purified (HisTrap HP)
B3: IR0 Trim16 Cy5 (dsDNA)
DNA 1: GCAGGGTCATGACCCCGC
DNA 2: CGCGGGGTCATGACCCTG
B4: IR0 Trim16 (dsDNA)
DNA 1: GCAGGGTCATGACCCCGC
DNA 2: CGCGGGGTCATGACCCTG
B5: DR5 Rarb2 (dsDNA)
DNA 1: AGGGTTCACCGAAAGTTCACT
DNA 2: AGTGAACTTTCGGTGAACCCT
B6: DR1 idealized Cy5 (dsDNA)
DNA 1: CTAGGTCAAAGGTCAGC
DNA 2: GCTGACCTTTGACCTAG
B7: DR1 idealized (dsDNA)
DNA 1: CTAGGTCAAAGGTCAGC
DNA 2: GCTGACCTTTGACCTAG
B8: NCoRNID (nuclear receptor interaction domain of the Nuclear receptor CoRepressor) (domain or fragment, UniProt Q60974 2059-2325, looked up)
chain: QVPRTHRLITLADHICQIITQDFARNQVPSQASTSTFQTSPSALSSTPVRTKTSSRYSPESQSQTVLHPRPGPRVSPENLVDKSRGSRPGKSPERSHIPSEPYEPISPPQGPAVHEKQDSMLLLSQRGVDPAEQRSDSRSPGSISYLPSFFTKLESTSPMVKSKKQEIFRKLNSSGGGDSDMAAAQPGTEIFNLPAVTTSGAVSSRSHSFADPASNLGLEDIIRKALMGSFDDKVEDHGVVMSHPVGIMPGSASTSVVTSSEARRDE
notes: Unlabelled form used for SEC-MALS, SEC-SAXS and HDX-MS; also called NCOR1
B9: DR5 Rarb2 Cy5 (dsDNA)
DNA 1: AGGGTTCACCGAAAGTTCACT
DNA 2: AGTGAACTTTCGGTGAACCCT
B10: DR0 Hoxb13 Cy5 (dsDNA)
DNA 1: GAAGGTCAAGGCCAAG
DNA 2: CTTGGCCTTGACCTTC

For series [1], the target named is Alexa488-labeled TIF-2NRID. The series can be described thus: fluorescence polarisation; steady-state fluorescence anisotropy; RR–DR1 titrated against 10 nM Alexa488-TIF-2NRID with 12 μM AM580 and CD3254; same buffer. In general terms: Fluorescence polarisation rises when a labelled molecule tumbles more slowly, as on binding a larger partner.
Series [2] concerns the target TIF-2NRID (nuclear receptor interaction domain of the transcriptional intermediary factor 2). Nature of the series: SEC; with SDS–PAGE; complexes of RR–DNA and TIF-2NRID formed in the presence of both agonists (AM580, CD3254). On the technique in general: Size exclusion chromatography separates by hydrodynamic size, large species first.
Series [3] has as its target Alexa488-labeled TIF-2NRID. The series can be described thus: fluorescence polarisation; steady-state fluorescence anisotropy; RR–DR5 titrated against 10 nM Alexa488-TIF-2NRID with 12 μM AM580 and CD3254; same buffer.
Series [4] deals with Alexa488-labeled TIF-2NRID. Nature of the series: fluorescence polarisation; steady-state fluorescence anisotropy; RR–IR0 titrated against 10 nM Alexa488-TIF-2NRID with 12 μM AM580 and CD3254; same buffer.
The target of series [5] is NCoRNID mut2 (point mutations designed to disrupt the helical folding of the IR region) (UniProt Q60974). Nature of the series: MST; RR–DR5 with BMS493; heterodimer titrated against labelled NCoRNID; same buffer, 22°C.
Series [6] has as its target NCoRNID mut1 (IR region replaced by a fully disordered segment) (UniProt Q60974). Nature of the series: MST; RAR/RXR bound to DR1 DNA (RR–DR1), no ligand (apo); heterodimer titrated against labelled NCoRNID; same buffer, 22°C.
For series [7], the target named is Alexa488-labeled TIF-2NRID. Nature of the series: fluorescence polarisation; steady-state fluorescence anisotropy; RR–DR0 titrated against 10 nM Alexa488-TIF-2NRID with 12 μM AM580 and CD3254; same buffer.
The target of series [8] is B8. The series can be described thus: SEC-MALS; with SDS–PAGE; complexes of RR–DNA and NCoRNID formed in the presence of BMS493. The following applies: both partners purified.
The target in series [9] is NCoRNID mut2 (point mutations designed to disrupt the helical folding of the IR region) (UniProt Q60974). Nature of the series: MST; RAR/RXR bound to DR5 DNA (RR–DR5), no ligand (apo); heterodimer titrated against labelled NCoRNID; same buffer, 22°C.
Series [10] concerns the target Alexa488-labeled TIF-2NRID. Nature of the series: fluorescence polarisation; steady-state fluorescence anisotropy; RAR/RXR without DNA titrated (from 4 μM, 2-fold dilutions) against 10 nM Alexa488-TIF-2NRID with 12 μM AM580 and CD3254; 20 mM Tris–HCl pH 7.5, 75 mM NaCl, 75 mM KCl, 2 mM CHAPS, 4 mM MgCl2, 5 mM DTT, 10% glycerol.
The target of series [11] is T1, HsRXRAΔAB (retinoid X receptor alpha …). The series can be described thus: SEC-MALS; purified RAR/RXR heterodimer; single peak, molecular weight matching the heterodimer. As to conditions: both partners purified.
Series [12] concerns the target T2, RARalpha dAB dF;RXRalpha dAB (Mus musculus / Homo sapiens (Methods …, UniProt P11416;P19793 82-421;126-462, |)). The series can be described thus: fluorescence anisotropy; AM580 + CD3254; Fluorescence anisotropy: 20 mM Tris-HCl pH 7.5, 75 mM NaCl, 75 mM KCl, 2 mM CHAPS, 4 mM MgCl2, 2 mM TCEP, 10% glycerol, 0.5 nM Cy5-DNA, 4 uM ligands, 294 K. The following applies: protein: recombinant;recombinant, tags: N-terminal His6 (pET15b), copies: 1;1, label: Cy5 on forward strand.

Series [13] addresses T2, RARalpha dAB dF;RXRalpha dAB. The series can be described thus: fluorescence anisotropy; BMS493; Fluorescence anisotropy: 20 mM Tris-HCl pH 7.5, 75 mM NaCl, 75 mM KCl, 2 mM CHAPS, 4 mM MgCl2, 2 mM TCEP, 10% glycerol, 0.5 nM Cy5-DNA, 4 uM ligands, 294 K. As to conditions: protein: recombinant;recombinant, tags: N-terminal His6 (pET15b), copies: 1;1, label: Cy5 on forward strand.

Series [14] shares this target. The series can be described thus: fluorescence anisotropy; apo; Fluorescence anisotropy: 20 mM Tris-HCl pH 7.5, 75 mM NaCl, 75 mM KCl, 2 mM CHAPS, 4 mM MgCl2, 2 mM TCEP, 10% glycerol, 0.5 nM Cy5-DNA, 4 uM ligands, 294 K. As to conditions: protein: recombinant;recombinant, tags: N-terminal His6 (pET15b), copies: 1;1, label: Cy5 on forward strand.
Series [15] has as its target RARalpha dAB dF;RXRalpha dAB;NCoR NID (Mus musculus / Homo sapiens (Methods …, UniProt P11416;P19793;Q60974 82-421;126-462;2059-2325, ||)). Nature of the series: SEC-SAXS, HDX-MS; BMS493; Fluorescence anisotropy: 20 mM Tris-HCl pH 7.5, 75 mM NaCl, 75 mM KCl, 2 mM CHAPS, 4 mM MgCl2, 2 mM TCEP, 10% glycerol, 0.5 nM Cy5-DNA, 4 uM ligands, 294 K. As to conditions: protein: recombinant;recombinant;recombinant, tags: N-terminal His6 (pET15b), copies: 1;1;1.

In series [16] the target is T1, HsRXRAΔAB (retinoid X receptor alpha …). Nature of the series: HDX-MS; RAR/RXR and RR–DNA (DR0, DR1, DR5, IR0) with and without NCoRNID, with BMS493; 4°C, 20 μM complex diluted 10-fold into deuterated buffer pD 7.5; 4 s to 10 800 s; RAR and RXR read as subunits of the heterodimer. The following applies: both partners purified.
Where [17] appears, read: 5' overhang 1 nt at both ends (so in the source).

For B1, the dissociation constant Kd (in general, the equilibrium constant for the complex coming apart) turned out to be 30.1 nM in series [1]; 27.7 nM in series [3]; 22.7 nM in series [4]; 538 nM in series [5]; 347 nM in series [6]; 55.1 nM in series [7]. Besides, the Kd in series [9] is 576 nM; in series [10], 126 nM. The stoichiometry N in series [2] and in [8] was 1 throughout.

As for B2, the stoichiometry N (as a rule, a count of units in the complex or per binding partner) in series [11] was determined as 1.

As to B3, the Kd is 3.8 ± 3.1 nM in series [12] (setting [17]), 29.1 ± 24.2 nM in series [13] (setting [17]) and 1.9 ± 1.3 nM in [14] (setting [17]).

With B4, the binding result in [15] (setting [17]) was “binds”.

B5: the binding result in series [15] (blunt) was “binds”.

B6: the equilibrium dissociation constant (Kd) in series [12] (blunt) was 8.7 ± 2.9 nM; in [13] (blunt) it was 24.6 ± 5 nM; in [14] (blunt) it was 6.1 ± 2.2 nM.

Take B7: in series [15] (blunt), the binding result was “binds”.

Regarding B8, in series [16], the binding result is “binds”.

As to B9, the equilibrium dissociation constant (Kd) stood at 2.4 ± 0.9 nM in series [12] (blunt), 15 ± 2 nM in series [13] (blunt) and 1.7 ± 0.8 nM in [14] (blunt).

As to B10, the figures for the equilibrium dissociation constant (Kd) in series [12] (blunt), in [13] (blunt) and in series [14] (blunt) were 24.1 ± 17.3 nM, 101 ± 48.1 nM and 33.5 ± 16.4 nM, respectively.
